Blank lines part the entries; values can stand above or below the molecule they belong to.
Experiments:
S6PP domain of SPP2 = target: T1, S6PP domain of SPP2 (Arabidopsis thaliana, UniProt Q9SJ66); assay: Pi release (SnCl2-molybdate), specific activity; assay type: biochemical; conditions: 1.25 mM Suc6P; 8 mM MgCl2, pH 7.0, 37 °C
T1 construct: N-terminal S6PP (HAD) domain only, C-terminal S6PPc domain removed; ends at ...IGHFKL by reverse primer P11; N-terminal His10 tag (pET-19b), E. coli; about 30 kDa monomer

SynSPP = target: T2, SynSPP (Synechocystis sp. PCC 6803, UniProt P74325); assay: Pi release (SnCl2-molybdate), specific activity; assay type: biochemical; conditions: 1.25 mM Suc6P; 8 mM MgCl2, pH 7.0, 37 °C
T2 construct: gene slr0953; full length, N-terminal His6 tag (pQE-80L), E. coli BL21(DE3)
T2 sequence (P74325 entry or part of it): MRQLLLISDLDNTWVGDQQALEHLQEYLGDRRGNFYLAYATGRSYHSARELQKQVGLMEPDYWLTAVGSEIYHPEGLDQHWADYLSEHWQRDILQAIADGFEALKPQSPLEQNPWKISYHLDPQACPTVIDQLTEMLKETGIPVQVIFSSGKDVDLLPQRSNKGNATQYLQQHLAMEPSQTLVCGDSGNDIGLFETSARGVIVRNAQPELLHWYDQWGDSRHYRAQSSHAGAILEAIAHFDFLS

[1] = target: Chimeric Synechocystis SPP fused at its C-terminus to the S6PPc domain of Arabidopsis SPP2 (SynSPP+S6PPc), His-tagged, from E. coli (Synechocystis sp. PCC 6803 | Arabidopsis thaliana); assay: SEC; gel filtration of the purified His-tagged proteins; eluted fractions immunoblotted with anti-His antibodies (Fig 7, S1 Fig)
SPP3b = target: T3, SPP3b (Arabidopsis thaliana, UniProt Q93XN8); assay: inhibition of Pi release from Suc6P (SnCl2-molybdate); assay type: biochemical
T3 construct: about 52 kDa subunit, about 90 kDa dimer; cDNA from RIKEN
T3 sequence (Q93XN8 1-423): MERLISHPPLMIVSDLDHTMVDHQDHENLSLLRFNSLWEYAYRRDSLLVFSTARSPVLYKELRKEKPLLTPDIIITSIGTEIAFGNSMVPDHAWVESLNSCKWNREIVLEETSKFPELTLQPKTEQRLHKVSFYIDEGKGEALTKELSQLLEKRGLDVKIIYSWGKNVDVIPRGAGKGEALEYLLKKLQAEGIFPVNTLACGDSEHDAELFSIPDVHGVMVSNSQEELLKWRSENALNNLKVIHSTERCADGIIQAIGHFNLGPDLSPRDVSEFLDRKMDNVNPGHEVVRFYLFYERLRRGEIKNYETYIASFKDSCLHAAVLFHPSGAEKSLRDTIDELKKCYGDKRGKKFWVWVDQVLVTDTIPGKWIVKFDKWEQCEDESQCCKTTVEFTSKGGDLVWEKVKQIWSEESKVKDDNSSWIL

[2] = substrate: O=P(O)(O)OC[C@H]1O[C@@](CO)(O[C@H]2O[C@H](CO)[C@@H](O)[C@H](O)[C@H]2O)[C@@H](O)[C@@H]1O; assay: Pi release (SnCl2-molybdate), nonlinear regression; assay type: biochemical, Arabidopsis thaliana; conditions: 25 mM HEPES-KOH pH 7.0, 8 mM MgCl2, 37 °C
Description: Pi release (SnCl2-molybdate), nonlinear regression on SPP2

[3] = target: the molecule itself; assay: SEC; Superose 12 10/300 GL, 25 mM HEPES-KOH pH 7.5, 150 mM KCl, 1 mM PMSF, without Mg2+, 0.4 ml/min; fractions followed by A280 and SPP activity; mass from a calibration curve of standards
[4] = substrate: O=P(O)(O)OC[C@H]1O[C@@](CO)(O[C@H]2O[C@H](CO)[C@@H](O)[C@H](O)[C@H]2O)[C@@H](O)[C@@H]1O; assay: Pi release (SnCl2-molybdate), nonlinear regression; assay type: biochemical, Arabidopsis thaliana; conditions: 25 mM HEPES-KOH pH 7.0, 8 mM MgCl2, 37 °C; remark: listed apart in the source
Description: Pi release (SnCl2-molybdate), nonlinear regression on SPP3b

[5] = substrate: O=P(O)(O)OC[C@H]1O[C@@](CO)(O[C@H]2O[C@H](CO)[C@@H](O)[C@H](O)[C@H]2O)[C@@H](O)[C@@H]1O; assay: Pi release (SnCl2-molybdate), nonlinear regression; assay type: biochemical, Arabidopsis thaliana; conditions: 25 mM HEPES-KOH pH 7.0, 8 mM MgCl2, 37 °C; remark: listed apart in the source
Description: Pi release (SnCl2-molybdate), nonlinear regression on SPP3a

Molecule: O=P(O)(O)OC[C@H]1O[C@@](CO)(O[C@H]2O[C@H](CO)[C@@H](O)[C@H](O)[C@H]2O)[C@@H](O)[C@@H]1O [Suc6P]
Pi release (SnCl2-molybdate), specific activity (S6PP domain of SPP2): with an activity significantly lower than the native protein | Pi release (SnCl2-molybdate), specific activity (SynSPP): The activity of each protein or chimera was determined as described in Materials and Methods

stoichiometry N [1]: 2
Molecule: Chimeric Synechocystis SPP fused at its C-terminus to the S6PPc domain of Arabidopsis SPP2 (SynSPP+S6PPc), His-tagged, from E. coli (enzyme)

Ki (SPP3b): 24 mM
Molecule: OC[C@H]1O[C@@](CO)(O[C@H]2O[C@H](CO)[C@@H](O)[C@H](O)[C@H]2O)[C@@H](O)[C@@H]1O [sucrose]

B1: Arabidopsis thaliana sucrose-phosphate phosphatase isoform SPP2, recombinant Nt-Histag (His10-SPP2, pET-19b) (enzyme, UniProt Q9SJ66 1-422, looked up)
chain: MERLTSPPRLMIVSDLDHTMVDHHDPENLSLLRFNSLWEHAYRHDSLLVFSTGRSPTLYKELRKEKPLLTPDITIMSVGTEITYGNSMVPDHGWVEALNNKWDLGIVKQEASNFPELKLQAETEQRPHKVSFYVEKSKAQEVTKELSQRFLKRGLDVKIIYSGGMDLDILPQGAGKGQALAYLLKKLKTEGKLPVNTLACGDSGNDAELFSIPDVYGVMVSNAQEELLKWHAENAKDNPKVIHAKERCAGGIIQAIGHFKLGPNLSPRDVSDFLEIKVENVNPGHEVVKFFLFYERWRRGEVENSEAYTASLKASVHPGGVFVHPSGTEKSLRDTIDELRKYHGDKQGKKFRVWADQVLATDTTPGTWIVKLDKWEQDGDERRCCTTTVKFTSKEGEGLVWEHVQQTWSKETMVKDDSSWII
notes: Sucrose-phosphate phosphatase SPP2 of Arabidopsis thaliana (At2g35840); cDNA from RIKEN, amplified with primers P5 (start codon) and P6 (stop codon); also called Nt-Histag SPP2; SSP2; source: E. coli BL21 (DE3), purified (HisTrap HP, Superose 12); not shown: His10, N-terminal, kept
Km [2]: 730 ± 320 µM | kcat [2]: 67.8 s⁻¹ | kcat/Km [2]: 92500 M⁻¹ s⁻¹ | stoichiometry N [3]: 2

B2: Arabidopsis thaliana sucrose-phosphate phosphatase isoform SPP3b, recombinant Nt-Histag (His10-SPP3b, pET-19b) (enzyme, UniProt Q93XN8 1-423, looked up)
chain: MERLISHPPLMIVSDLDHTMVDHQDHENLSLLRFNSLWEYAYRRDSLLVFSTARSPVLYKELRKEKPLLTPDIIITSIGTEIAFGNSMVPDHAWVESLNSCKWNREIVLEETSKFPELTLQPKTEQRLHKVSFYIDEGKGEALTKELSQLLEKRGLDVKIIYSWGKNVDVIPRGAGKGEALEYLLKKLQAEGIFPVNTLACGDSEHDAELFSIPDVHGVMVSNSQEELLKWRSENALNNLKVIHSTERCADGIIQAIGHFNLGPDLSPRDVSEFLDRKMDNVNPGHEVVRFYLFYERLRRGEIKNYETYIASFKDSCLHAAVLFHPSGAEKSLRDTIDELKKCYGDKRGKKFWVWVDQVLVTDTIPGKWIVKFDKWEQCEDESQCCKTTVEFTSKGGDLVWEKVKQIWSEESKVKDDNSSWIL
notes: Sucrose-phosphate phosphatase SPP3b of Arabidopsis thaliana (At3g52340); cDNA from RIKEN, amplified with primers P9 (start codon) and P10 (stop codon); source: E. coli BL21 (DE3), purified (HisTrap HP, Superose 12); not shown: His10, N-terminal, kept
Km [4]: 3460 ± 710 µM | kcat [4]: 3.59 s⁻¹ | kcat/Km [4]: 1040 M⁻¹ s⁻¹ | stoichiometry N [3]: 2

B3: Arabidopsis thaliana sucrose-phosphate phosphatase isoform SPP3a, recombinant Nt-Histag (His10-SPP3a, pET-19b) (enzyme, UniProt Q93WU4 1-425, looked up)
chain: MDRLEGPPRLILVADLDCTLVDHDDPENNDLLRFNALWEAHYRHDSLLVYCTGRSFSSYSSLRKKRPLLTPDIAVTSVGSEIVYGGGESTVSDVVWTARLDYKWNRDIVVEETLKFPKLEPQPDKSQEEHKVSFFVGREDAVEIMKVLPGILEERGVDVKLVYSNGYAFDVLPRGAGKQGALTYLLDKLDIEGKQPSNTLVCGDSGNDAELFNISDVYGVMVSNSHEELLQWYEENAKDNPKIFHASERCGAGMIEAIQRFNLGPNVSPRDVMDTENFHGESLNPAHEVVQFYLFYERWRCGEVEKSDKYLQNLKSLSSPLGIFVHPSGVEKPIHEWIDEMENLYGDGKEKKFRIWLDNVTSSHISSDTWLAKFVKHELSEGKVRSCSTKVLLSYKEEKQRLTWMHIHQSWLDESSSDDQEKWIF
notes: Sucrose-phosphate phosphatase SPP3a of Arabidopsis thaliana (At3g54270); amplified from rosette leaf cDNA with primers P7 (start codon) and P8 (stop codon); source: E. coli BL21 (DE3), purified (HisTrap HP, Superose 12); not shown: His10, N-terminal, kept
Km [5]: 870 ± 390 µM | kcat [5]: 0.396 s⁻¹ | kcat/Km [5]: 454 M⁻¹ s⁻¹ | stoichiometry N [3]: 2

Reference: publication PMC5113954, “Characterization of the Sucrose Phosphate Phosphatase (SPP) Isoforms from Arabidopsis thaliana and Role of the S6PPc Domain in Dimerization” (PLoS ONE, 2016)
